B1: 849.2D7: anti-Gal3 antibody (antibody, V domains shown)
VH: QVQLQQSGPQLVRPGASVKISCKASGYSFTNYWMHWVKQRPGQGLEWIGMIDPSDSETRLNQKFKDKATLTVDKSSSTAYMQLSSPTSEDSAVYYCATGRPDYWGQGTTLTVSS
VL: DIVMTQSHKFMSTSVGDRVSITCKASQDVSTAVAWYQQKPGQSPKLLIYWASTRHTGVPDRFTGSGSGTDYTLTISSVQAEDLALYYCQQHYSTPYTFGGGTKLEIK
B2: 847.20H7: anti-Gal3 antibody (antibody, V domains shown)
VH: QVQLQQSGAELVRPGASVNLSCKASGYTFTNYWMNWVKQRPGQGLEWVGMIDPSDSETHYNQMFKDKATLTIDKSSSIAYMQLSSLTSEDSAVYYCARWGAMDYWGQGTSVTVSS
VL: DIVMTQSHKIMSTSVGDRVSITCKASQDVSTTVAWFQQKPGQSPKLLLYWASTRHTGVPDRFTGSGSGTDYTLTISSVQAEDLALYYCQQHYSPPFTFGSGTKLEIK
B3: 20H5.A3-VH3VL1: anti-Gal3 antibody, VH SEQ ID NO: 814, VL SEQ ID NO: 829 (antibody, V domains shown)
VH: QIQLVQSGSELKKPGASVKVSCKASGYAFTTYGMSWVRQAPGQGLEWMGWVNTYSGVPTYADDFTGRFVFSLETSVSTAYLQISSLKAEDTAVYFCARGPYAMDYWGQGTLVTVSS
VL: DIQMTQSPSSLSASVGDRVTITCQASQDISNYLNWYQQKPGKAPKLLIYYTSSLLTGVPSRFSGSGSGTDYTFTISSLQPEDIATYYCQQYSKLPYTFGQGTKLEIK
modifications: VH-88 Peptide Sequence; VL-86 Peptide Sequence
B4: 20H5.A3-VH4VL1: anti-Gal3 antibody, VH SEQ ID NO: 816, VL SEQ ID NO: 831 (antibody, V domains shown)
VH: QIQLVQSGSELKKPGASVKVSCKASGYAFTTYGMSWVRQAPGQGLEWMGWVNTYSGVPTSADDFTGRFVFSLETSVSTAYLQISSLKAEDTAVYFCARGPYAMDYWGQGTLVTVSS
VL: DIQMTQSPSSLSASVGDRVTITCQASQDISNYLNWYQQKPGKAPKLLIYYTSSLLTGVPSRFSGSGSGTDYTFTISSLQPEDIATYYCQQYSKLPYTFGQGTKLEIK
modifications: VH-90 Peptide Sequence; VL-88 Peptide Sequence
B5: 20H5.A3-VH6VL1: anti-Gal3 antibody, VH SEQ ID NO: 819, VL SEQ ID NO: 834 (antibody, V domains shown)
VH: QVQLVQSGFELKKPGASVKISCKASGYAFTTYGMSWVRQAPGQGLEWMGWVNTYSGVPTSAQAFTGRFVFSLDTSVSTAYLQISSLKAEDTAVYYCARGPYAMDYWGQGTLVTVSS
VL: DIQMTQSPSSLSASVGDRVTITCQASQDISNYLNWYQQKPGKAPKLLIYYTSSLLTGVPSRFSGSGSGTDYTFTISSLQPEDIATYYCQQYSKLPYTFGQGTKLEIK
modifications: VH-93 Peptide Sequence; VL-91 Peptide Sequence
B6: 20H5.A3-VH6VL3: anti-Gal3 antibody, VH SEQ ID NO: 820, VL SEQ ID NO: 835 (antibody, V domains shown)
VH: QVQLVQSGFELKKPGASVKISCKASGYAFTTYGMSWVRQAPGQGLEWMGWVNTYSGVPTSAQAFTGRFVFSLDTSVSTAYLQISSLKAEDTAVYYCARGPYAMDYWGQGTLVTVSS
VL: DIQMTQSPSSLSASVGDRVTITCRASQDISNYLNWYQQKPGKAPKLLIYYTSSLLSGVPSRFSGSGSGTDYTLTISSLQPEDFATYYCQQYSKLPYTFGQGTKLEIK
modifications: VH-94 Peptide Sequence; VL-92 Peptide Sequence
B7: 20H5.A3-VH3VL3: anti-Gal3 antibody, VH SEQ ID NO: 815, VL SEQ ID NO: 830 (antibody, V domains shown)
VH: QIQLVQSGSELKKPGASVKVSCKASGYAFTTYGMSWVRQAPGQGLEWMGWVNTYSGVPTYADDFTGRFVFSLETSVSTAYLQISSLKAEDTAVYFCARGPYAMDYWGQGTLVTVSS
VL: DIQMTQSPSSLSASVGDRVTITCRASQDISNYLNWYQQKPGKAPKLLIYYTSSLLSGVPSRFSGSGSGTDYTLTISSLQPEDFATYYCQQYSKLPYTFGQGTKLEIK
modifications: VH-89 Peptide Sequence; VL-87 Peptide Sequence
B8: 20H5.A3-VH5VL3: anti-Gal3 antibody, VH SEQ ID NO: 818, VL SEQ ID NO: 833 (antibody, V domains shown)
VH: QVQLVQSGFELKKPGASVKISCKASGYAFTTYGMSWVRQAPGQGLEWMGWVNTYSGVPTYAQAFTGRFVFSLDTSVSTAYLQISSLKAEDTAVYYCARGPYAMDYWGQGTLVTVSS
VL: DIQMTQSPSSLSASVGDRVTITCRASQDISNYLNWYQQKPGKAPKLLIYYTSSLLSGVPSRFSGSGSGTDYTLTISSLQPEDFATYYCQQYSKLPYTFGQGTKLEIK
modifications: VH-92 Peptide Sequence; VL-90 Peptide Sequence
B9: 20H5.A3-VH5VL1: anti-Gal3 antibody, VH SEQ ID NO: 817, VL SEQ ID NO: 832 (antibody, V domains shown)
VH: QVQLVQSGFELKKPGASVKISCKASGYAFTTYGMSWVRQAPGQGLEWMGWVNTYSGVPTYAQAFTGRFVFSLDTSVSTAYLQISSLKAEDTAVYYCARGPYAMDYWGQGTLVTVSS
VL: DIQMTQSPSSLSASVGDRVTITCQASQDISNYLNWYQQKPGKAPKLLIYYTSSLLTGVPSRFSGSGSGTDYTFTISSLQPEDIATYYCQQYSKLPYTFGQGTKLEIK
modifications: VH-91 Peptide Sequence; VL-89 Peptide Sequence
B10: 2D10-hVH4-HVL1: anti-Gal3 antibody, VH SEQ ID NO: 806, VL SEQ ID NO: 821 (antibody, V domains shown)
VH: QVQLVQSGAEVKKPGASVKVSCKASGYTFTDYYINWVRQAPGQRLEWMGWIYPGSQDTKYNEKFQGRVTLTVDTSASTAYMELSSLRSEDTAVYFCANYFGSSGWFFDVWGQGTMVTVSS
VL: DIVMTQSPLSLPVTPGEPASISCRSSKSLLHSDGITYLYWYLQKPGQSPQLLIYRMSNRASGVPDRFSGSGSGTDFTLKISRVEAEDVGVYYCAQMIEFPLTFGQGTKLEIK
modifications: VH-80 Peptide Sequence; VL-78 Peptide Sequence

These molecules were tested on Human Gal3 peptides (assay: Gal3 peptide binding ELISA (Example 8)). Details: antibody 5 μg/mL.
Experimental: Gal3 peptide binding activity of additional exemplary anti-Gal3 antibodies was assessed with the same peptides as described in FIG. 18 (SEQ ID NOs: 3-26). Human Gal3 peptides (LifeTein, custom order) and human Gal3 proteins (R&D Systems, 8259-GA; TrueBinding, QCB200349) were diluted in PBS (Corning, 21-030-CM) to concentrations of at least 100 μg/mL (peptides) or 1 μg/mL (proteins), and added to the wells of several 96-well ELISA plates (Thermo Fisher, 44-2404-21). After incubating the plates at 4° C. overnight, the plates were washed three times with PBST (PBS with 0.05% Tween 20 [VWR, 0777]). The plates were then blocked for an hour with 2% BSA (EMD Millipore, 126609) in PBST at room temperature with gentle rocking. Thereafter, the 2% BSA in PBST was discarded and Gal3-binding antibodies (reformatted hIgG4 [S228P]) were diluted in 2% BSA in PBST to concentrations of 5 μg/mL and added to the wells. The plates were incubated for an hour at room temperature with gentle rocking and then washed three times with PBST. Afterwards, Peroxidase AffiniPure F(ab′)2 Fragment Goat Anti-Human IgG (H+L) polyclonal antibody (Jackson ImmunoResearch, 109-036-003), was diluted in 2% BSA in PBST (1:4000) and added to the wells. The plates were incubated for 1 hour at room temperature with gentle rocking and then washed three times with PBST. TMB substrate (Thermo Scientific, 34029) was then added to each well. The reaction was stopped with 1M HCl (JT Baker, 5620-02) and read using a plate reader (Molecular Devices) at absorbance of 450 nm.

Molecule | binding to any of the tested Gal3 peptides
B1 | not found to bind
B2 | not found to bind

Each molecule was assayed on GLUT4 translocation in L6 GLUT4myc myoblasts (assay: Insulin-stimulated GLUT4 translocation with Gal3 and anti-Gal3 antibody). Details: 30 μg/mL Gal3 pre-incubated with 60 μg/mL antibody, 100 nM insulin.
Assay type: cell-based, rat
Experimental: Rat L6 GLUT4myc myoblasts (Kerafast #ESK202-FP) express a Myc-tagged GLUT4 that can be detected with an anti-Myc antibody. These cells were grown in a 48-well plate in MEM u growth media (Gibco, #12-571-063)+10% fetal bovine serum (FBS; Corning #35-016-CV) until 90-95% confluence was reached. Cells were then washed in PBS and serum starved for 2 hours in MEM u growth media without FBS. Thirty (30) μg/mL recombinant human Gal3 (TrueBinding QCB200347) was pre-incubated with 60 μg/mL anti-Gal3 antibodies for 30 minutes before being added to the serum-starved cells for 1 hour at 37° C. At the end of incubation, half of the cells were treated with 100 nM insulin (Sigma-Aldrich #I5523-50MG) for 20 minutes while the other half acted as basal controls. After 20 minutes, cells were washed quickly with ice cold PBS twice, then incubated with 4% paraformaldehyde (Boster Bio #AR1068) for 10 minutes on ice followed by 10 minutes at room temperature. The cells were washed three times with PBS, then blocked with 0.5 mL 5% goat serum (Vector Laboratories #101098-382) in PBS for 15 minutes. After the blocking agent was aspirated from the cells, 1 μg/ml anti-Myc polyclonal antibody (Sigma-Aldrich #C-3956) in 5% goat serum was added for 1 hour. […] Primary antibody was aspirated away, and then cells washed 5 times with PBS. Next, cells (including background controls) were incubated with 1:1000 goat anti rabbit antibody secondary antibody (Abcam #Ab97051) in 5% Goat serum for 30 minutes at room temperature. After washing, cells were incubated with 400 μL of TMB (Thermo Scientific #PI34029) for 5 minutes, then 200 μL of 1N HCL (Avantor Performance #JT5620-2) was added to stop the reaction. 100 μL of the sample was transferred to a 96 well plate with duplicates transferred for each condition. Samples were read at 450 nm on a SpectraMax plate reader. […] The fold changes were plotted on GraphPad Prism and presented as mean (SEM) of the technical replicates. Statistical significance was determined using unpaired T-tests comparing samples treated with Gal3 and insulin with all other conditions.

Molecule | effect on Gal3 block of insulin-stimulated GLUT4 translocation
B3 | reduce the ability of Gal3 to block insulin-dependent GLUT4 translocation
B4 | reduce the ability of Gal3 to block insulin-dependent GLUT4 translocation
B5 | reduce the ability of Gal3 to block insulin-dependent GLUT4 translocation
B6 | reduce the ability of Gal3 to block insulin-dependent GLUT4 translocation
B7 | reduce the ability of Gal3 to block insulin-dependent GLUT4 translocation
B8 | reduce the ability of Gal3 to block insulin-dependent GLUT4 translocation
B9 | reduce the ability of Gal3 to block insulin-dependent GLUT4 translocation
B10 | reduce the ability of Gal3 to block GLUT4 translocation

What follows are molecules tested against T1, human Gal3 (Homo sapiens, UniProt P17931) (assay: Epitope binning, sandwich format, SPR Carterra LSA (Example 8)). Details: not given.
T1 construct: 6xHis (linker-spaced) (C); purchased AcroBio (Acro Biosystems) GA3-H5129
T1 sequence (P17931 whole entry): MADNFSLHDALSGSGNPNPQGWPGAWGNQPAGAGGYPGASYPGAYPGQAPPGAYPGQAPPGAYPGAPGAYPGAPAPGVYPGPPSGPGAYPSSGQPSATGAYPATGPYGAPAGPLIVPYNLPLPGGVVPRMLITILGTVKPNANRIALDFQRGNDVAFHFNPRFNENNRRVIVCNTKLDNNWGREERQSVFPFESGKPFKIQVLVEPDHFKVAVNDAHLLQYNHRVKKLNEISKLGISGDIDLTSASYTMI
Assay type: binding
Experimental: The epitope binning assay was done in a sandwich format on the high-throughput SPR-based Carterra LSA unit (CarterraBio, Salt Lake City, Utah). First, the purified antibodies were diluted to 10 μg/ml concentration in 10 mM NaOAc (pH 5.0) and then were covalently coupled via amine group to HC200M chip activated by EDC and S-NHS to immobilize antibodies to different positions of a 384-spot array. One hundred thirty-eight binning cycles were run on the array of immobilized antibodies. In each cycle, first, human Gal3 (AcroBio GA3-H5129) was injected over the entire array to bind to different antibodies (primary antibody), followed by one antibody (secondary antibody) selected among the panel of 150 anti-GAL3 antibodies tested. At the end of each cycle, the array was regenerated by 10 mM Glycine (pH 2.0) to remove bound antigen and secondary antibody from the array. The data analysis was done using the Epitope software by CarterraBio.

Molecule | epitope bin (mutual competitive binding for Gal3)
B1 | 10

— patent US20220411514A1, “ANTI-GAL3 ANTIBODIES AND METHODS OF USE FOR INSULIN RESISTANCE” (TrueBinding, Inc., priority 2021, published 2022)
